Details in all cases: chain copies: 4
The target in data set [1] is T1, A118 recombinase (Listeria monocytogenes phage A118).
T1 chain: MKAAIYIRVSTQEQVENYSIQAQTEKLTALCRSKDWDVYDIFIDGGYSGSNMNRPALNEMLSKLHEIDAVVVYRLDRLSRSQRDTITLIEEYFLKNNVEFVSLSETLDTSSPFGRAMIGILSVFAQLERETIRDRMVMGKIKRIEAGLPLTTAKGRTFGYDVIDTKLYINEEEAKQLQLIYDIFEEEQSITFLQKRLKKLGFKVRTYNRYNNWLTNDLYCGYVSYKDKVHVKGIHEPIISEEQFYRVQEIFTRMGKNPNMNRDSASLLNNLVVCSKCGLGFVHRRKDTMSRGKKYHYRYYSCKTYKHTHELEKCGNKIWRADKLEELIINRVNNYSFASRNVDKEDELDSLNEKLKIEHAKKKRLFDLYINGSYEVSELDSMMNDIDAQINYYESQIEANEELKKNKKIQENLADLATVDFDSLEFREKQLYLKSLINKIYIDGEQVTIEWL
Nature of the data set: cell_activity; attP x attB recombination with N8, tobacco BY2 protoplasts; also active in mammalian cells. How it is done: (§1) Cell suspension cultures of Nicotiana tobacum BY2 were maintained in MS medium in the dark and subcultured weekly (Nagata, T., T. Nemoto, and S. Hasezawa. 1992. Tobacco BY-2 cell line as the Hela cell in the cell biology of higher plants. Intl. Rev. Cytol., 132:1-30). Protoplasts prepared from 3 day-old cultures were resuspended in 0.4 M mannitol and distributed into 35 mm petri dishes in 1 mL aliquots (˜5×10⁵ cells). Protoplasts were mixed with plasmid DNA and electroporated at 0.56 K Volts for 80μ seconds using a square wave electroporation system with Petripulser electrode (BTX, San Diego, Calif., USA). The cells were transfected with 10 μg for the intramolecular recombination test plasmid and 0 or 10 μg for the recombinase expression plasmid. Following the electroporation, protoplasts were diluted with 1 mL of 2× protoplast culture medium (Watanabe, Y., T. Meshi, and Y. Okada. 1987. Infection of tobacco protoplasts with in vitro transcribed tobacco mosaic virus RNA using an improved electroporation method. Virology, 192:264-272), aliquotted as two 1 mL cultures, and incubated at 27° C. for 17 h. Protoplasts were lysed by freeze thawing and addition of 250 μL 5× passive lysis buffer (Promega, Madison, Wis., USA). Twenty μL of cell extract was assayed for luciferase activity using Dual Luciferase Assay kit on a plate reader equipped with injectors. […]

The next data set deals with T2, Bxb1 recombinase (Mycobacterium smegmatis phage Bxb1).
T2 chain: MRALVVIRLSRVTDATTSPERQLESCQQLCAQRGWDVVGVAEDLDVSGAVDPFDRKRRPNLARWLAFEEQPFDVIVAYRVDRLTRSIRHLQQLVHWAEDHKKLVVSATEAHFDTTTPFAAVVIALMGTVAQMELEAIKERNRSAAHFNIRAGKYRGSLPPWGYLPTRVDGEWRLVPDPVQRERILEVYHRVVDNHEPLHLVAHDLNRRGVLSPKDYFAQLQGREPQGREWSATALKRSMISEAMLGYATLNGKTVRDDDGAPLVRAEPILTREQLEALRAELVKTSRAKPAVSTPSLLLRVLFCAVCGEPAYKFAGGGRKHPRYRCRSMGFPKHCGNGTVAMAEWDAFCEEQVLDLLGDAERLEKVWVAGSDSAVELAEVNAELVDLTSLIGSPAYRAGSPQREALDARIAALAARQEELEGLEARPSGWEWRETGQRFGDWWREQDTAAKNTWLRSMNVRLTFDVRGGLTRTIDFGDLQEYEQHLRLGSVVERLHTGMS
Put plainly: cell_activity; partner of N5, NIH3T3; chromosomal integration also seen (Tables 1-2). The procedure:
Cells were maintained at 37° C. and 5% CO₂ in DMEM supplemented with 10% fetal bovine serum and 1% penicillin/streptomycin (obtained from Invitrogen, Carlsbad, Calif.) or in other media as indicated. On the day of transfection, cells were plated at different densities depending on the cell type used. The cells were transfected with intramolecular recombination assay plasmid alone or along with varying amounts of recombinase expression plasmid DNA using Lipofectamine 2000™ according to the manufacturers instructions (Invitrogen, Carlsbad, Calif.). Constitutively expressed Renilla luciferase reporter plasmid (pRL-CMV from Promega, Madison, Wis.) was co-transfected (2 ng/well) and used as an internal control to normalize the data. Twenty-four or forty-eight hours after transfection (depending on the cell line), media was discarded and cells were lysed with passive lysis buffer (Promega, Madison, Wis.). Extracts were then assayed using Dual Luciferase Assay kit (Promega, Madison, Wis.) on a plate reader equipped with injectors (Dynex Technologies, Chantilly, Va.). The data shown are the ratios of luciferase (Luc) and Renilla luciferase (RLuc) activities, unless noted otherwise. Similar results were observed when Luc activities (relative light units) were compared (data not shown). […]

Data set [2] concerns the target T1, A118 recombinase. Nature of the data set: cell_activity; partner of N7, tobacco BY2 protoplasts; chromosomal integration also seen (Tables 1-2). The procedure:
as §1

B1: A118 attP (dsDNA)
DNA 1: ACGCTAGTAGCTTGTTTATTTAGATTGTTTAGTTCCTCGTTTTCTCTCGTTGGAAGAAGAAGAAACGAGAAACTAAAATTATAAATAAAAAGTAACCTA
DNA 2: TAGGTTACTTTTTATTTATAATTTTAGTTTCTCGTTTCTTCTTCTTCCAACGAGAGAAAACGAGGAACTAAACAATCTAAATAAACAAGCTACTAGCGT
As for B1, the activity with A118 recombinase [1] was 364 fold induction.

B2: Bxb1 attB (dsDNA)
DNA 1: GGCCGGCTTGTCGACGACGGCGGTCTCCGTCGTCAGGATCATCCGG
DNA 2: CCGGATGATCCTGACGACGGAGACCGCCGTCGTCGACAAGCCGGCC
Take B2: the activity in the data set with Bxb1 recombinase was 66 fold induction.

B3: A118 attB (dsDNA)
DNA 1: TTGAGCTAATTAAAACCAGCTGTAACTTTTTCGGATCAAGCTATGAAGGACGCAAAGAGGGAACTAAACACTTAATTGGTGTTACCCATAAGCCAC
DNA 2: GTGGCTTATGGGTAACACCAATTAAGTGTTTAGTTCCCTCTTTGCGTCCTTCATAGCTTGATCCGAAAAAGTTACAGCTGGTTTTAATTAGCTCAA
Regarding B3, in the data set with A118 recombinase [2], the activity was 364 fold induction.
